Patent publication US20130324465A1 (Sanofi, published 2013)
Several values for one entry are separate records, joined by “and”; a condition that tells them apart may be missing. Identical values can stand only once.

T1: VEGF165 (UniProt P15692 27-191)
T1 chain: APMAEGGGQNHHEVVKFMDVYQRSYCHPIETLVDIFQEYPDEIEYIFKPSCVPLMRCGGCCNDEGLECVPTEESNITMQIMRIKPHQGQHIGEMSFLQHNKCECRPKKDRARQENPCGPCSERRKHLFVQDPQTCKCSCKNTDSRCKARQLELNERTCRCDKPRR


How the values were obtained:
[1] = target: VEGF165 (UniProt P15692); experiment: VEGF binding assay
[2] = target: VEGF165 (UniProt P15692); experiment: VEGF binding assay; after 56 days incubation at 45 C
[3] = target: VEGF165 (UniProt P15692); experiment: competitive VEGF ELISA; panel A
[4] = target: VEGF165 (UniProt P15692); experiment: competitive VEGF ELISA; panel B
[5] = target: T1, VEGF165; experiment: Biacore; 100RU VEGF
[6] = target: T1, VEGF165; experiment: competitive VEGF ELISA; panel B
[7] = target: T1, VEGF165; experiment: Biacore; 500RU VEGF
[8] = target: T1, VEGF165; experiment: competitive VEGF ELISA; panel A
[9] = target: T1, VEGF165; experiment: competitive VEGF ELISA
[10] = target: T1, VEGF165; experiment: VEGF binding assay
[11] = target: T1, VEGF165; experiment: Biacore; 4000RU VEGF
[12] = target: T2, VEGF165 (UniProt P15692-4 27-191); experiment: competitive VEGF ELISA: binding to 10 pM recombinant VEGF, free VEGF measured by ELISA
T2 construct: also called recombinant VEGF (R&D Systems); immobilized VEGF
Protocol: (§1) Dimers wherein two D2 domains of sFLT are coupled via PEG linkers were prepared by reaction of the partially-reduced monomer with homobifunctional PEGs. Products were isolated by SEC (FIG. 5) and analyzed for VEGF binding affinity using competitive ELISA (FIG. 9). VEGF165 binding of three SEC purified D2 domain constructs including dimers prepared with 0.6, 2 and 5 kDa linkers and as well as the 10 and 20 kDa 4-arm PEG conjugates as described in Example 1 was determined. The assay was performed by binding to 10 pM recombinant VEGF (R&D Systems) in phosphate-buffered saline. The sample concentrations ranged from 0.0763 to 156 pM. Following binding, the free VEGF concentration was determined by a VEGF-specific ELISA (R&D Systems). […] D2 monomer purified directly from medium (“D2 HPC4 eluate Pk C”) had no detectable binding to VEGF165.

[13] = target: T2, VEGF165; experiment: competitive VEGF ELISA
Protocol: Dimer was prepared using 100 uM CuCl₂ and the products assayed for VEGF binding activity by competitive VEGF ELISA. […] This value was similar to that obtained for dimers obtained without copper oxidation (FIG. 5). This molecule lacks the hinge region and Fc domain of sFLT01 and represents a minimal high affinity VEGF binding entity. Its low MW may provide advantages in localized delivery, including higher diffusion through tissue, more rapid systemic clearance thus reducing potential side effects of VEGF antagonism, and greater stability upon formulation into slow-release depots.
Dimers wherein two D2 domains of sFLT are coupled via PEG linkers were prepared by reaction of the partially-reduced monomer with homobifunctional PEGs. Products were isolated by SEC (FIG. 5) and analyzed for VEGF binding affinity using competitive ELISA (FIG. 9). VEGF165 binding of three SEC purified D2 domain constructs including dimers prepared with 0.6, 2 and 5 kDa linkers and as well as the 10 and 20 kDa 4-arm PEG conjugates as described in Example 1 was determined. The assay was performed by binding to 10 pM recombinant VEGF (R&D Systems) in phosphate-buffered saline. The sample concentrations ranged from 0.0763 to 156 pM. Following binding, the free VEGF concentration was determined by a VEGF-specific ELISA (R&D Systems). […]

[14] = target: T2, VEGF165; experiment: Biacore
[15] = target: T2, VEGF165; experiment: competitive VEGF ELISA (VEGF binding assay)
Protocol: as §1

Row | Molecule | Kd [5] [nM] | EC50 [6] [nM] | Kd [7] [nM] | EC50 [8] [nM] | EC50 [9] [nM] | Kd [11] [nM] | further results
1 | disulfide-linked D2 dimer (D2 domain with HPC4 tag and C-terminal cysteine) (from UniProt P17948 133-226) |  |  |  |  |  |  | EC50 [1]: 0.0048 nM; EC50 [2]: 0.0109 nM; EC50 [3]: 0.00708 nM; EC50 [4]: 0.0119 nM
2 | D2-Cys protein (D2 domain of FLT-1 with HPC4 tag and C-terminal cysteine), monomer (from UniProt P17948 133-226) |  |  |  |  |  |  | EC50 [4]: 0.172 nM and 0.254 nM
3 | Four-arm D2 tetramer linked with 4-arm PEG of 20 kDa (receptor, free cysteine coupled to a 4-arm 20 kDa maleimide PEG) RPFVEMYSEIPEIIHMTEGRELVIPCRVTSPNITVTLKKFPLDTLIPDGKRIIWDSRKGFIISNATYKEIGLLTCEATVNGHLYKTNYLTHRQT | 1.5 |  | 0.1 | 0.00478 |  | 0.17 | 
4 | PEG-linked D2 dimer, 2 kDa linker (receptor, free cysteine of partially-reduced monomer coupled to a homobifunctional PEG linker of 2 kDa) RPFVEMYSEIPEIIHMTEGRELVIPCRVTSPNITVTLKKFPLDTLIPDGKRIIWDSRKGFIISNATYKEIGLLTCEATVNGHLYKTNYLTHRQT |  |  |  | 0.00579 |  |  | 
5 | D2-Cys protein (D2 domain of FLT-1 with HPC4 tag and C-terminal cysteine), monomer (receptor, Expressed in HEK293-EBNA cells and purified on an HPC4 antibody column; glycosylated; also called D2 monomer; TCEP-reduced D2 monomer) RPFVEMYSEIPEIIHMTEGRELVIPCRVTSPNITVTLKKFPLDTLIPDGKRIIWDSRKGFIISNATYKEIGLLTCEATVNGHLYKTNYLTHRQT | 9.61 |  | 11.5 |  | 131 | 28.9 | percent of the binding affinity of sFLT01 [12]: < 3%; fold higher EC50 than sFLT01 [13]: ~35 fold; Kd [14]: ~10 nM
6 | PEG-linked D2 dimer, 0.6 kDa linker (receptor, free cysteine of partially-reduced monomer coupled to a homobifunctional PEG linker of 0.6 kDa (BM(PEG)3)) RPFVEMYSEIPEIIHMTEGRELVIPCRVTSPNITVTLKKFPLDTLIPDGKRIIWDSRKGFIISNATYKEIGLLTCEATVNGHLYKTNYLTHRQT |  | 0.00471 |  |  |  |  | 
7 | Four-arm D2 tetramer linked with 4-arm PEG of 10 kDa (receptor, free cysteine coupled to a 4-arm 10 kDa PEG) RPFVEMYSEIPEIIHMTEGRELVIPCRVTSPNITVTLKKFPLDTLIPDGKRIIWDSRKGFIISNATYKEIGLLTCEATVNGHLYKTNYLTHRQT | 0.84 |  | 0.14 | 0.00374 |  | 0.35 | 

More lines, main results first:

Row | Kd [5] [nM] | EC50 [6] [nM] | Kd [7] [nM] | EC50 [8] [nM] | EC50 [9] [nM] | Kd [11] [nM] | Molecule | further results
8 | 2.5 | 0.00472 | 0.61 | 0.0047 | 3.7 | 0.8 | sFLT01 (D2-9Gly-Fc) (Fc fusion) RPFVEMYSEIPEIIHMTEGRELVIPCRVTSPNITVTLKKFPLDTLIPDGKRIIWDSRKGFIISNATYKEIGLLTCEATVNGHLYKTNYLTHRQTGGGGGGGGG | EC50 [10]: 0.0054 nM
9 |  | 0.00675 |  |  |  |  | PEG-linked D2 dimer, 5 kDa linker (receptor, free cysteine of partially-reduced monomer coupled to a homobifunctional PEG linker of 5 kDa) RPFVEMYSEIPEIIHMTEGRELVIPCRVTSPNITVTLKKFPLDTLIPDGKRIIWDSRKGFIISNATYKEIGLLTCEATVNGHLYKTNYLTHRQT | 
10 | 1.69 |  | 0.53 |  | 8.3 | 11.4 | disulfide-linked D2 dimer (D2 domain with HPC4 tag and C-terminal cysteine) (receptor, disulfide-linked dimer, presumably via the C-terminal cysteine, Two preparations are kept under one id; One formed spontaneously and was SEC-purified from PEGylation reactions or conditioned medium, without copper oxidation ('D2 HPC4 eluate Pk B', 'D2 Pk B'); also called Cu-oxidized dimer; D2 HPC4 eluate Pk B) RPFVEMYSEIPEIIHMTEGRELVIPCRVTSPNITVTLKKFPLDTLIPDGKRIIWDSRKGFIISNATYKEIGLLTCEATVNGHLYKTNYLTHRQT | fold higher EC50 than sFLT01 [13]: 2.2 fold; EC50 [15]: 0.008 to 0.01 nM; fold higher EC50 than sFLT01 [15]: 2 fold
